The target of assay [1] is C-terminal truncated Myc-hFcγRIa which lacks the cytoplasmic tail (human) (UniProt P12314). Nature of the assay: adhesion of bacteria to transfected cells (total cell associated bacteria); COS-1 monolayers transfected with Myc-hFcγRIa, Myc-hFcγRIa-CT, Myc-hFcγRII or pcDNA3 (mock); E. coli K1 at an MOI of 100, 1.5 h, 37°C; cell associated bacteria plated.
For assay [2], the target named is FcγRIa of RAW 264.7 cells (mouse (endogenous in RAW 264.7)) (UniProt P26151).
UniProt P26151, sequence (P26151 25-404): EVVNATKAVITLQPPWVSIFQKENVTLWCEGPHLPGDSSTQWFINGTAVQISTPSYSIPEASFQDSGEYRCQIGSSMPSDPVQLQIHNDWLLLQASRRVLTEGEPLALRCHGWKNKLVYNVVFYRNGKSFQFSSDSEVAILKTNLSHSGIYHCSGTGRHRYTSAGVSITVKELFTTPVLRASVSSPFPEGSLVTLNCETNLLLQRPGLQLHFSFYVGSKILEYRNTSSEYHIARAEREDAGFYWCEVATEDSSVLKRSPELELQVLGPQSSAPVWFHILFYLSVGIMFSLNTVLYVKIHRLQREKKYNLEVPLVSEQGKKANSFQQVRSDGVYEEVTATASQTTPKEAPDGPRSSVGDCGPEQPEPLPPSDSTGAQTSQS

UniProt P12314, sequence (P12314 16-314): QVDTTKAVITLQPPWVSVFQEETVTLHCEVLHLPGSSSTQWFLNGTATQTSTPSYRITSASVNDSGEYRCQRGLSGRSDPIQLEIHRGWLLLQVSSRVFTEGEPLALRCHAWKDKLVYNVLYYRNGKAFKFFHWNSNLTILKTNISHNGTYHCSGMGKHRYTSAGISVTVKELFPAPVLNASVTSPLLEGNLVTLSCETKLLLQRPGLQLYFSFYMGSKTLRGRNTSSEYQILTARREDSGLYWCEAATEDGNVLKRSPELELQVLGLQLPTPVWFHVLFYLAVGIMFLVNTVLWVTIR

The substance “outer membrane protein A (OmpA) of E. coli K1 (from UniProt P0A910 22-346) (natural protein)” returned a decrease of bacterial binding against Myc-hFcγRIa+/COS-1 cells in assay [1] of 30%. This substance also showed a reduction of intracellular E. coli K1 in RAW 264.7 cells (gentamicin protection assay) by Fab fragments of anti-OmpA antibody or by anti-FcγRI antibody in assay [2] of 80%.

The values above are taken from article PMC2987830.
